To fix the notation:
B1: terminal oxygenase (Oxy) component of carbazole 1,9a-dioxygenase (CARDO) from Janthinobacterium sp. J3, reduced state (enzyme, UniProt Q84II6 1-384, looked up)
chain: MANVDEAILKRVKGWAPYVDAKLGFRNHWYPVMFSKEINEGEPKTLKLLGENLLVNRIDGKLYCLKDRCLHRGVQLSVKVECKTKSTITCWYHAWTYRWEDGVLCDILTNPTSAQIGRQKLKTYPVQEAKGCVFIYLGDGDPPPLARDTPPNFLDDDMEILGKNQIIKSNWRLAVENGFDPSHIYIHKDSILVKDNDLALPLGFAPGGDRKQQTRVVDDDVVGRKGVYDLIGEHGVPVFEGTIGGEVVREGAYGEKIVANDISIWLPGVLKVNPFPNPDMMQFEWYVPIDENTHYYFQTLGKPCANDEERKKYEQEFESKWKPMALEGFNNDDIWAREAMVDFYADDKGWVNEILFESDEAIVAWRKLASEHNQGIQTQAHVSG
notes: terminal oxygenase component (Oxy) of carbazole 1,9a-dioxygenase, Janthinobacterium sp; J3; histidine-tagged; Holds a Rieske-type [2Fe-2S] cluster (reduced in this experiment) and a nonhaem iron centre; Trimer in the crystal; Construct as in earlier work (Ashikawa et al., 2005; Matsuzawa et al., 2013); also called Oxyred; reduced Oxy; source: E. coli BL21(DE3), purified (metal-chelation …)
B2: ferredoxin (Fd) component of carbazole 1,9a-dioxygenase (CARDO) from Pseudomonas resinovorans CA10, oxidized state (natural protein)
chain: MNQIWLKVCAASDMQPGTIRRVNRVGAAPLAVYRVGDQFYATEDTCTHGIASLSEGTLDGDVIECPFHGGAFNVCTGMPASSPCTVPLGVFEVEVKEGEVYVAGEKK
notes: ferredoxin component (Fd) of carbazole 1,9a-dioxygenase, Pseudomonas resinovorans CA10; histidine-tagged; Holds a Rieske-type [2Fe-2S] cluster (oxidized in this experiment); Called a monomer in the crystal; Construct as in earlier work (Ashikawa et al., 2005; Matsuzawa et al., 2013); also called Fdox; oxidized Fd; source: E. coli BL21(DE3), purified (metal-chelation chromatography, gel filtration)

Data set [1] deals with the molecule itself. Description: crystal structure; Oxyred and Fdox mixed in a 1:3 molar ratio with 10% glycerol, anaerobic, hanging-drop vapour diffusion at 293 K, 0.1 M sodium cacodylate pH 5.7, 14% (w/v) PEG 3350; dissolved crystals checked by SDS-PAGE and anti-His Western blot; data to 2.25 A, molecular replacement with PDB 2de5 (preliminary). (In general: In western blotting, separated proteins are transferred to a membrane and probed.)

Data set [2] concerns the target B1. The data set is described as above. Particulars: both partners purified.

Usually stoichiometry N stands for the number of molecules, sites or subunits per partner or assembly. For B1, in data set [1], the “stoichiometry N” value was 3.
Turning to B2, in data set [2], the “stoichiometry N” value is 2 molecules of the Fd monomer per one Oxy trimer.

(Values after PMC4188090, “Crystallization and preliminary X-ray diffraction analyses of the redox-controlled complex of terminal oxygenase and ferredoxin components in the Rieske nonhaem iron oxygenase carbazole 1,9a-dioxygenase” (Acta Crystallographica. Section F, Structural Biology …, 2014).)
